Experimental data as given in patent US20110301073.

Tests used:
[1] = test system: TALEN 101139 (synthetic (Xanthomonas TALE)); assay: cell_activity; conditions: paired with 101141
[2] = test system: TALEN 101231 (NI half repeat) (synthetic (Xanthomonas TALE)); assay: cell_activity; conditions: paired with 101234
[3] = test system: TALEN 101141 (HD half repeat) (synthetic (Xanthomonas TALE)); assay: cell_activity; conditions: paired with 101139
[4] = test system: TALEN 101233 (NI half repeat) (synthetic (Xanthomonas TALE)); assay: cell_activity; conditions: paired with 101151
[5] = test system: TALEN 101151 (synthetic (Xanthomonas TALE)); assay: cell_activity; conditions: paired with 101233
[6] = test system: TALE test backbone, repeat 5 RVD IG (synthetic (Xanthomonas TALE)); conditions: ELISA
[7] = test system: TALE test backbone, repeat 5 RVD HD, standard framework (SEQ 333) (Xanthomonas sp. (engineered)); conditions: RVD HD
[8] = test system: TALE test backbone, repeat 5 RVD KI (Xanthomonas sp. (engineered)); conditions: RVD KI
[9] = test system: TALE test backbone, repeat 5 RVD GG (synthetic (Xanthomonas TALE)); conditions: ELISA
[10] = test system: TALE test backbone, repeat 5 RVD AA (synthetic (Xanthomonas TALE)); conditions: ELISA
[11] = test system: TALE test backbone, repeat 5 RVD QG (synthetic (Xanthomonas TALE)); conditions: ELISA
[12] = test system: TALE test backbone, repeat 5 RVD RI (synthetic (Xanthomonas TALE)); conditions: ELISA
[13] = test system: TALE test backbone, repeat 5 RVD KS (synthetic (Xanthomonas TALE)); conditions: ELISA
[14] = test system: TALE test backbone, repeat 5 RVD SG (synthetic (Xanthomonas TALE)); conditions: ELISA
[15] = test system: TALE test backbone, repeat 5 RVD VG (synthetic (Xanthomonas TALE)); conditions: ELISA
[16] = test system: TALE test backbone, repeat 5 RVD RG (synthetic (Xanthomonas TALE)); conditions: ELISA
[17] = test system: TALE test backbone, repeat 5 RVD TA (synthetic (Xanthomonas TALE)); conditions: ELISA
[18] = test system: TALE test backbone, repeat 5 RVD PW (Xanthomonas sp. (engineered)); conditions: RVD PW; 0.00 on all four bases
[19] = test system: TALE test backbone, repeat 5 RVD HA (synthetic (Xanthomonas TALE)); conditions: ELISA
[20] = test system: TALE test backbone, repeat 5 RVD LA (synthetic (Xanthomonas TALE)); conditions: ELISA
[21] = test system: TALE test backbone, repeat 5 RVD KT (synthetic (Xanthomonas TALE)); conditions: ELISA
[22] = test system: TALE test backbone, repeat 5 RVD KG (synthetic (Xanthomonas TALE)); conditions: ELISA
[23] = test system: TALE test backbone, repeat 5 RVD NS (synthetic (Xanthomonas TALE)); conditions: ELISA
[24] = test system: TALE test backbone, repeat 5 RVD AT (synthetic (Xanthomonas TALE)); conditions: ELISA
[25] = test system: TALE test backbone, repeat 5 RVD NA (synthetic (Xanthomonas TALE)); conditions: ELISA
[26] = test system: TALE test backbone, repeat 5 RVD SN (synthetic (Xanthomonas TALE)); conditions: ELISA
[27] = test system: TALE test backbone, repeat 5 RVD DH (synthetic (Xanthomonas TALE)); conditions: ELISA
[28] = test system: TALE test backbone, repeat 5 RVD NI (Xanthomonas sp. (engineered)); conditions: RVD NI
[29] = test system: TALE test backbone, repeat 5 RVD AD (synthetic (Xanthomonas TALE)); conditions: ELISA
[30] = test system: TALE test backbone, repeat 5 RVD YG (synthetic (Xanthomonas TALE)); conditions: ELISA
[31] = test system: TALE test backbone, repeat 5 RVD HI (Xanthomonas sp. (engineered)); conditions: RVD HI
[32] = test system: TALE test backbone, repeat 5 RVD KD (synthetic (Xanthomonas TALE)); conditions: ELISA
[33] = test system: TALE test backbone, repeat 5 RVD IA (synthetic (Xanthomonas TALE)); conditions: ELISA
[34] = test system: TALE test backbone, repeat 5 RVD IP (synthetic (Xanthomonas TALE)); conditions: ELISA
[35] = test system: TALE test backbone, repeat 5 RVD HG (synthetic (Xanthomonas TALE)); conditions: ELISA
[36] = test system: TALE test backbone, repeat 5 RVD HN (synthetic (Xanthomonas TALE)); conditions: ELISA
[37] = test system: TALE test backbone, repeat 5 RVD NG (Xanthomonas sp. (engineered)); conditions: RVD NG
[38] = test system: TALE test backbone, repeat 5 RVD TP (synthetic (Xanthomonas TALE)); conditions: ELISA
[39] = test system: TALE test backbone, repeat 5 RVD NN (Xanthomonas sp. (engineered)); conditions: RVD NN
[40] = test system: TALE test backbone, repeat 5 RVD ND (synthetic (Xanthomonas TALE)); conditions: ELISA
[41] = test system: TALE test backbone, repeat 5 RVD RA (synthetic (Xanthomonas TALE)); conditions: ELISA
[42] = test system: TALE test backbone, repeat 5 RVD DK (synthetic (Xanthomonas TALE)); conditions: ELISA
[43] = test system: TALE test backbone, repeat 5 RVD QA (synthetic (Xanthomonas TALE)); conditions: ELISA
[44] = test system: TALE test backbone, repeat 5 RVD AE (synthetic (Xanthomonas TALE)); conditions: ELISA
[45] = test system: TALE test backbone, repeat 5 RVD AN (synthetic (Xanthomonas TALE)); conditions: ELISA

For “GGGCTCTCCCATGCAT (double strand) [101139 site]”, which activity [1] is on record?
The activity was 6.7 % NHEJ.

With “GGCACTCCGCACCCCCA (double strand) [101231 site]” as the sequence, how does the activity [2] read?
The activity was 10 % NHEJ.

Which activity [3] does the source give for “TCCTAGAAGGGCAGGC (double strand) [101141 site]” here?
The activity was 6.7 % NHEJ.

How did the activity [4] turn out when “GCTCCTGGCCCTTGCA (double strand) [101233 site]” was run?
Its activity is 13.3 % NHEJ.

Which activity [5] does the source give for “CCGCACCCCCAGCT (double strand) [101151 site]” here?
The activity was 13.3 % NHEJ.

Which binding signal (normalized ELISA) [6] does the source give for “TTGACAATCCT (double strand) [CAA target]” here?
Its binding signal (normalized ELISA) is 0.04.

What about the binding signal (normalized ELISA) [7] of the same sequence?
Its binding signal (normalized ELISA) is 0.15.

What about the binding signal (normalized ELISA) [8] of the same sequence?
The binding signal (normalized ELISA) was 0.75.

And the binding signal (normalized ELISA) [9]?
The binding signal (normalized ELISA) was 0.49.

And the binding signal (normalized ELISA) [10]?
The binding signal (normalized ELISA) was 0.34.

What about the binding signal (normalized ELISA) [11] of the same sequence?
The binding signal (normalized ELISA) was 0.21.

What about the binding signal (normalized ELISA) [12] of the same sequence?
Its binding signal (normalized ELISA) is 0.65.

What about the binding signal (normalized ELISA) [13] of the same sequence?
The binding signal (normalized ELISA) was 0.95.

And the binding signal (normalized ELISA) [14]?
The binding signal (normalized ELISA) was 0.36.

And the binding signal (normalized ELISA) [15]?
Its binding signal (normalized ELISA) is 0.05.

What about the binding signal (normalized ELISA) [16] of the same sequence?
Its binding signal (normalized ELISA) is 0.32.

What about the binding signal (normalized ELISA) [17] of the same sequence?
The binding signal (normalized ELISA) was 0.15.

And the binding signal (normalized ELISA) [18]?
The binding signal (normalized ELISA) was 0.

What about the binding signal (normalized ELISA) [19] of the same sequence?
The binding signal (normalized ELISA) was 0.46.

What about the binding signal (normalized ELISA) [20] of the same sequence?
Its binding signal (normalized ELISA) is 0.02.

And the binding signal (normalized ELISA) [21]?
Its binding signal (normalized ELISA) is 1.

And the binding signal (normalized ELISA) [22]?
Its binding signal (normalized ELISA) is 0.47.

What about the binding signal (normalized ELISA) [23] of the same sequence?
The binding signal (normalized ELISA) was 0.51.

What about the binding signal (normalized ELISA) [24] of the same sequence?
Its binding signal (normalized ELISA) is 1.29.

What about the binding signal (normalized ELISA) [25] of the same sequence?
Its binding signal (normalized ELISA) is 0.59.

What about the binding signal (normalized ELISA) [26] of the same sequence?
The binding signal (normalized ELISA) was 0.43.

What about the binding signal (normalized ELISA) [27] of the same sequence?
The binding signal (normalized ELISA) was 0.01.

And the binding signal (normalized ELISA) [28]?
Its binding signal (normalized ELISA) is 0.6.

And the binding signal (normalized ELISA) [29]?
Its binding signal (normalized ELISA) is 0.02.

And the binding signal (normalized ELISA) [30]?
The binding signal (normalized ELISA) was 0.12.

What about the binding signal (normalized ELISA) [31] of the same sequence?
The binding signal (normalized ELISA) was 0.67.

And the binding signal (normalized ELISA) [32]?
The binding signal (normalized ELISA) was 0.06.

What about the binding signal (normalized ELISA) [33] of the same sequence?
Its binding signal (normalized ELISA) is 0.15.

What about the binding signal (normalized ELISA) [34] of the same sequence?
Its binding signal (normalized ELISA) is 0.04.

What about the binding signal (normalized ELISA) [35] of the same sequence?
Its binding signal (normalized ELISA) is 0.38.

And the binding signal (normalized ELISA) [36]?
Its binding signal (normalized ELISA) is 0.5.

What about the binding signal (normalized ELISA) [37] of the same sequence?
Its binding signal (normalized ELISA) is 0.48.

And the binding signal (normalized ELISA) [38]?
The binding signal (normalized ELISA) was 0.16.

And the binding signal (normalized ELISA) [39]?
The binding signal (normalized ELISA) was 0.47.

What about the binding signal (normalized ELISA) [40] of the same sequence?
The binding signal (normalized ELISA) was 0.06.

And the binding signal (normalized ELISA) [41]?
Its binding signal (normalized ELISA) is 0.73.

And the binding signal (normalized ELISA) [42]?
Its binding signal (normalized ELISA) is 0.

And the binding signal (normalized ELISA) [43]?
Its binding signal (normalized ELISA) is 0.2.

And the binding signal (normalized ELISA) [44]?
The binding signal (normalized ELISA) was 0.

And the binding signal (normalized ELISA) [45]?
The binding signal (normalized ELISA) was 0.51.
